Common to all, as to format: cell-based, human
The subject of test [1] is hfRPE cells. The test can be described thus: wound healing assay, hfRPE migration. As to conditions: 48 hours, proliferation suppressed with mitomycin C. As to the method:
The wound healing assay was used to study the effects of inflammatory cytokines on hfRPE cell migration, as described previously in Li, R., et al. Invest Ophthalmol Vis Sci, 2007, 48, 5722-5732, incorporated herein by reference in its entirety. Cell proliferation was suppressed by incubation with 10 μg/ml mitomycin C (Sigma) for 2 hours before all migration experiments. A circular denuded area (7 mm in diameter) was made in each well using a custom designed cell scraper. After incubation with various inflammatory cytokines for 48 hours, cells were fixed with cold methanol and stained with ethidium homodimer-1 (EthD-1, Invitrogen) according to the manufacturer's instructions. Cell migration was quantified by counting the average number of cells that migrated into the denuded area in 16 microscope fields surrounding the circumference of the denuded area. Each condition was tested in triplicate and repeated using cells from different donors.

The subject of the next test is hfRPE monolayers. As to the kind of experiment: fluid transport (JV, TEP, RT) across hfRPE monolayers in modified Üssing chamber. The source says: Confluent monolayers of hfRPE cultured on transwells were mounted in a modified Üssing chamber and transepithelial water flow measurements (JV) were made with a capacitance probe technique as described previously in Maminishkis, A., et al., Invest Ophthalmol Vis Sci, 2006, 47, 3612-3624; Shi, G., et al., Invest Ophthalmol Vis Sci, 2008, 49, 4620-4630; Edelman, J. L., et al., Invest Ophthalmol Vis Sci, 1991, 32, 3033-3040; Jiang, C., et al., Science, 1993, 262, 424-427; and Maminishkis, A., et al., Invest Ophthalmol Vis Sci, 2002, 43, 3555-3566, each incorporated herein by reference in its entirety.
Tissue viability was ascertained by recording transepithelial potential (TEP) and total tissue resistance (RT). It should be noted that the solution composition changes in this chamber were relatively slow (≈1-2 chamber volumes per minute) and the data sampling rate was once per minute, more than two orders of magnitude slower than the sampling rate in the electrophysiology chamber (see below). Therefore it was not possible to record fast changes, in seconds or minutes, in JV, TEP, or RT. After addition of IFNγ to the apical or basal baths, steady-state JV, TEP, and RT were recorded for 20-30 minutes. In control experiments, successive additions of IFNγ were made to test for the repeatability and reversibility of responses. To block IFNγ effects, RPE cells were incubated for 30-60 minutes with a blocking antibody against IFNγ R1, JAK inhibitor I, PKA inhibitors (H-89, EMD Biosciences; RP-8-Br-cAMPS, Sigma-Aldrich), nitric oxide synthase inhibitor (aminoguanidine hydrochloride, Sigma-Aldrich), P38 MAPK inhibitors (SB203580 or SB20290), or CHX. Other components of this signaling pathway were studied using P38 MAPK inhibitors (SB203580 and SB202190). Relatively specific Cl channel inhibitors, CFTRinh-172 or DIDS (EMD Biosciences, La Jolla, Calif.), were used to block cAMP or Ca^2+-activated Cl channels; experiments with CFTRinh-172 were performed as described in Muanprasat, C., et al., J Gen Physiol, 2004, 124, 125-137, incorporated herein by reference in its entirety. In chronic experiments, paired hfRPE tissues with matched RT values were incubated for 4-24 hours with IFNγ or CHX. The subsequent changes in JV, RT, and TEP were measured in Ringer's solution or serum free cell culture media as previously described in Shi, G., et al., Invest Ophthalmol Vis Sci, 2008 and Maminishkis, A., et al., Invest Ophthalmol Vis Sci, 2006, 47, 3612-3624, each incorporated herein by reference in its entirety. Intracellular levels of NO were elevated with 1-Hydroxy-2-oxo-3-(3-aminopropyl)-3-isopropyl-1-triazene (NOC-5, Enzo Life Sciences, Plymouth, Pa.). 8-Br-cGMP was purchased from Sigma-Aldrich.

For test [2], the system named is hfRPE cells. The test can be described thus: cyclic AMP assay (cAMP-screen ELISA). The conditions noted are these: IFNγ 0.5, 5, 50 ng/ml, all time points. As to the method:
Intracellular cAMP levels were assayed with a cAMP-screen ELISA system (Applied Biosystems) following the manufacturer's protocol. Briefly, confluent monolayers of hfRPE cells cultured in 24-well plates were starved in SFM for 4 hours and then treated with IFNγ (0.5, 5, and 50 ng/ml), forskolin (10 μM), or forskolin (10 μM) and isobutylmethylxanthine (IBMX; 0.5 mM) for 5 minutes, 30 minutes, 4 hours, 16 hours, or 24 hours. For some of the experiments, cells were treated with IBMX (0.5 mM) for 30 minutes, and then IFNγ or forskolin was added. Cells were lysed and the supernatant collected after centrifugation. Samples were incubated with anti-cAMP antibody and cAMP-AP in a 96-well assay plate; serial dilutions of cAMP served as standards. The plate was incubated with substrate and the chemiluminescence signal measured with a SpectraMax M2 microplate reader (Molecular Devices). The standard curve was obtained by best fit with a weighted 4-parameter logistic curve and the cAMP concentration was calculated and normalized with total protein concentration.
For orientation: ELISA stands for enzyme-linked immunosorbent assay.

The text below walks through data of US9486502B2, “Methods of administering interferon gamma to absorb fluid from the subretinal space” (The United States of America, as represented by the …, priority 2008, dated 2016).

B1: IFNγ: pleiotropic cytokine produced by T- and NK-cells; obtained from Peprotech (protein, UniProt P01579 24-161, looked up)
Interferon gamma: QDPYVKEAENLKKYFNAGHSDVADNGTLFLGILKNWKEESDRKIMQSQIVSFYFKLFKNFKDDQSIQKSVETIKEDMNVKFFNSNKKKRDDFEKLTNYSVTDLNVQRKAIHELIQVMAELSPAAKTGKRKRSQMLFRG
For the molecule B1, in the test with hfRPE cells [1], the “effect on hfRPE cell migration” value was “significantly inhibited”. Besides, the “mean JV after IFNγ” value with hfRPE monolayers (10 experiments, from 12.9±1.6, mean±s.e.m.) came out at 20.5±3.1 μl·cm^−2·hr^−1; in the test with hfRPE monolayers (nine experiments (P38 series), from 7.5 ±1.9) it was 16.5±2.2 μl·cm^−2·hr^−1; in the test with hfRPE monolayers (three experiments (H-89 series), from 8.4±1.6) it was 20.1±0.2 μl·cm^−2·hr^−1. The “TEP after 24 hour IFNγ” value in the test on hfRPE monolayers (IFNγ 5 ng/ml apical and basal, 24 hours) is listed as “no significant TEP changes”. The “mean JV after 24 hour IFNγ” value with hfRPE monolayers (IFNγ 5 ng/ml apical and basal, 24 hours, control 7.6±1.5, 5 experiments) was 15.2±2.0 μl·cm^−2·hr^−1. In addition, the “cell viability as measured by TEP and RT” value in the test on hfRPE monolayers (IFNγ 5 ng/ml basal bath) is given as “no apparent changes”. Also, the “increase in JV” value in the test with hfRPE monolayers (IFNγ 5 ng/ml in the basal bath, FIG. 14A) is listed as roughly 8.6 μl·cm^−2·hr^−1. Moreover, in the test on hfRPE monolayers (IFNγ 5 ng/ml, 24 hours, from 592±80, n=5), the “RT after 24 hour IFNγ” value was 356±139 Ω·cm^2. In addition, the “effect on JV” value with hfRPE monolayers (IFNγ added to the apical bath) is on record as “no significant effect”. In addition, the IFNγ-induced resistance change entry in the test with hfRPE monolayers (at 24 hours) is recorded as “≈ 2 fold”. The “mean IFNγ-induced resistance change” value with hfRPE monolayers (at 24 hours) was “≈ 240 Ω·cm^2”. In addition, the “JV after subsequent addition of IFNγ” value in the test on hfRPE monolayers (continued presence of Rp-8-Br-cAMPS 2 μM, six experiments) was 8.4±1.7 μl·cm^−2·hr^−1; in the test with hfRPE monolayers (in presence of H-89, four experiments), 14.7±4.7 μl·cm^−2·hr^−1. Further, the “effect on total intracellular cAMP” value in the test on hfRPE cells [2] was “no apparent effect”.
